Data: the PETadex activity labels (doi:10.3390/ijms25158120)

What was measured:
BHET = test: Proxy for plastic degradation [Released monomer concentration (HPLC/LC-MS) (MHET)]; conditions: pH 7
PET [1] = test: Proxy for plastic degradation [Released monomer concentration (HPLC/LC-MS) (TPA+MHET+BHET+Total aromatic products)]; conditions: pH 7, 0 h
p-NP-C4 = conditions: pH 6; 70 °C
[2] = Melting temperature [DSF / Thermofluor]; conditions: pH 8.5
pNPB [3] = test: Proxy for plastic degradation [Residual activity]; conditions: pH 7
pNPB [4] = test: Proxy for plastic degradation [Relative activity]; conditions: pH 7
pNPB [5] = test: Proxy for plastic degradation [Specific activity]
PET [6] = test: Proxy for plastic degradation [Released monomer concentration (HPLC/LC-MS) (TPA)]; conditions: pH 7
PET [7] = test: Proxy for plastic degradation [Released monomer concentration (HPLC/LC-MS) (BHET)]; conditions: pH 7
PET [8] = test: Proxy for plastic degradation [Released monomer concentration (HPLC/LC-MS) (MHET)]; conditions: pH 7
PET [9] = test: Proxy for plastic degradation [Released monomer concentration (HPLC/LC-MS) (TPA+MHET+BHET)]; conditions: pH 7
[10] = 30 °C, 0 h, part of the chain shown
[11] = 30 °C, 48 h, part of the chain shown
[12] = 30 °C, 72 h, part of the chain shown
[13] = 30 °C, 96 h, part of the chain shown

B1: unnamed (protein)
chain: MQTNPYARGPNPTAASLEASAGPFTVRSFTVSRPSGYGAGTVYYPTNAGGTVGAIAIVPGYTARQSSIKWWGPRLASHGFVVITIDTNSTLDQPSSRSSQQMAALRQVASLNGTSSSPIYGKVDTARMGVMGWSMGGGGSLISAANNPSLKAAAPQAPWDSSTNFSSVTVPTLIFACENDSIAPVNSSALPIYDSMSRNAKQFLEINGGSHSCANSGNSNQALIGKKGVAWMKRFMDNDTRYSTFACENPNSTRVSDFRTANCSLEHHHHHH
- Proxy for plastic degradation (BHET; 30 °C, 0 h): 0 µM
- Proxy for plastic degradation (BHET; 30 °C, 20 h): 12 µM
- Proxy for plastic degradation (BHET; 30 °C, 40 h): 20 µM
- Proxy for plastic degradation (BHET; 30 °C, 60 h): 25 µM
- Proxy for plastic degradation (BHET; 50 °C, 0 h): 0 µM
- Proxy for plastic degradation (BHET; 50 °C, 20 h): 5 µM
- Proxy for plastic degradation (BHET; 50 °C, 40 h): 5.5 µM
- Proxy for plastic degradation (BHET; 50 °C, 60 h): 5.5 µM
- Proxy for plastic degradation (BHET; 70 °C, 0 h): 0 µM
- Proxy for plastic degradation (BHET; 70 °C, 20 h): 2.5 µM
- Proxy for plastic degradation (BHET; 70 °C, 40 h): 3 µM
- Proxy for plastic degradation (BHET; 70 °C, 60 h): 2 µM
- Proxy for plastic degradation (PET [1]; 30 °C): 0 µM

B2: unnamed (protein)
chain: MKIVKTLLTVIFSVLMVVSMAHAVQIGPNPTSTLLNGDGPFAVSSSSVSSLACGTGCAGGTVYYPTTAGQYGVIAVCPGYTGTSSSIAWFARRLATHGFVTIAMDTNSTLDYPSSRATQLAAALRYLINSSSSTIRSRIRTADRGVAGHSMGGGGTLIASADDSTLRVGIPMTPWNTYTSFSSVRVPQMIFGADGDTIASASSHARPFYNSITQAEKAYALLNDASHFTPNSTDQRIGRYGVAFAKRFVDGDTRYNPFLCGAEHTAYATSSRFDTYLSNCPY
- Km (p-NP-C4): 80 µM
- kcat (p-NP-C4): 447 s⁻¹
- kcat/Km (p-NP-C4): 5.59e+06 M⁻¹ s⁻¹
- Melting temperature [2]: 82 °C
- Proxy for plastic degradation (pNPB [3]; 50 °C, 0 h): 100%
- Proxy for plastic degradation (pNPB [3]; 50 °C, 0.33 h): 54%
- Proxy for plastic degradation (pNPB [3]; 50 °C, 0.5 h): 38%
- Proxy for plastic degradation (pNPB [3]; 50 °C, 1 h): 49%
- Proxy for plastic degradation (pNPB [3]; 50 °C, 2 h): 57%
- Proxy for plastic degradation (pNPB [3]; 50 °C, 3 h): 46%
- Proxy for plastic degradation (pNPB [3]; 50 °C, 6 h): 65%
- Proxy for plastic degradation (pNPB [3]; 50 °C, 24 h): 52%
- Proxy for plastic degradation (pNPB [3]; 50 °C, 48 h): 55%
- Proxy for plastic degradation (pNPB [3]; 50 °C, 72 h): 43%
- Proxy for plastic degradation (pNPB [3]; 50 °C, 96 h): 30%
- Proxy for plastic degradation (pNPB [3]; 70 °C, 0 h): 100%
- Proxy for plastic degradation (pNPB [3]; 70 °C, 0.33 h): 54%
- Proxy for plastic degradation (pNPB [3]; 70 °C, 0.5 h): 51%
- Proxy for plastic degradation (pNPB [3]; 70 °C, 2 h): 70%
- Proxy for plastic degradation (pNPB [3]; 70 °C, 3 h): 51%
- Proxy for plastic degradation (pNPB [3]; 70 °C, 6 h): 50%
- Proxy for plastic degradation (pNPB [3]; 70 °C, 24 h): 52%
- Proxy for plastic degradation (pNPB [3]; 70 °C, 48 h): 47%
- Proxy for plastic degradation (pNPB [3]; 70 °C, 72 h): 20%
- Proxy for plastic degradation (pNPB [3]; 70 °C, 96 h): 17%
- Proxy for plastic degradation (pNPB [4]; 50 °C, 0 h): 100%
- Proxy for plastic degradation (pNPB [4]; 50 °C, 0.33 h): 55%
- Proxy for plastic degradation (pNPB [4]; 50 °C, 0.5 h): 38%
- Proxy for plastic degradation (pNPB [4]; 50 °C, 1 h): 50%
- Proxy for plastic degradation (pNPB [4]; 50 °C, 2 h): 60%
- Proxy for plastic degradation (pNPB [4]; 50 °C, 4 h): 48%
- Proxy for plastic degradation (pNPB [4]; 50 °C, 6 h): 65%
- Proxy for plastic degradation (pNPB [4]; 50 °C, 24 h): 50%
- Proxy for plastic degradation (pNPB [4]; 50 °C, 48 h): 52%
- Proxy for plastic degradation (pNPB [4]; 50 °C, 72 h): 40%
- Proxy for plastic degradation (pNPB [4]; 50 °C, 96 h): 35%
- Proxy for plastic degradation (pNPB [4]; 70 °C, 0 h): 100%
- Proxy for plastic degradation (pNPB [4]; 70 °C, 0.33 h): 55%
- Proxy for plastic degradation (pNPB [4]; 70 °C, 0.5 h): 52%
- Proxy for plastic degradation (pNPB [4]; 70 °C, 1 h): 50%
- Proxy for plastic degradation (pNPB [4]; 70 °C, 2 h): 70%
- Proxy for plastic degradation (pNPB [4]; 70 °C, 4 h): 50%
- Proxy for plastic degradation (pNPB [4]; 70 °C, 6 h): 48%
- Proxy for plastic degradation (pNPB [4]; 70 °C, 24 h): 50%
- Proxy for plastic degradation (pNPB [4]; 70 °C, 48 h): 40%
- Proxy for plastic degradation (pNPB [4]; 70 °C, 72 h): 20%
- Proxy for plastic degradation (pNPB [4]; 70 °C, 96 h): 18%
- Proxy for plastic degradation (pNPB [5]; pH 4): 0 U/mg
- Proxy for plastic degradation (pNPB [5]; pH 5): 225 U/mg
- Proxy for plastic degradation (pNPB [5]; pH 7): 200 U/mg
- Proxy for plastic degradation (pNPB [5]; pH 7, 50 °C): 500 U/mg
- Proxy for plastic degradation (pNPB [5]; pH 9): 150 U/mg
- Proxy for plastic degradation (pNPB [5]; pH 10): 75 U/mg
- Proxy for plastic degradation (PET [6]; 30 °C, 0 h): 0 µM
- Proxy for plastic degradation (PET [6]; 50 °C, 0 h): 0 µM
- Proxy for plastic degradation (PET [6]; 50 °C, 48 h): 140 µM
- Proxy for plastic degradation (PET [6]; 50 °C, 96 h): 330 µM
- Proxy for plastic degradation (PET [6]; 70 °C, 0 h): 0 µM
- Proxy for plastic degradation (PET [6]; 70 °C, 24 h): 180 µM
- Proxy for plastic degradation (PET [7]; 30 °C, 0 h): 0 µM
- Proxy for plastic degradation (PET [7]; 50 °C, 0 h): 0 µM
- Proxy for plastic degradation (PET [7]; 50 °C, 48 h): 10 µM
- Proxy for plastic degradation (PET [7]; 70 °C, 0 h): 0 µM
- Proxy for plastic degradation (PET [7]; 70 °C, 24 h): 5 µM
- Proxy for plastic degradation (PET [7]; 70 °C, 48 h): 3 µM
- Proxy for plastic degradation (PET [7]; 70 °C, 72 h): 2 µM
- Proxy for plastic degradation (BHET; 30 °C, 0 h): 0 µM
- Proxy for plastic degradation (BHET; 30 °C, 40 h): 4 µM
- Proxy for plastic degradation (BHET; 30 °C, 60 h): 5 µM
- Proxy for plastic degradation (BHET; 50 °C, 0 h): 0 µM
- Proxy for plastic degradation (BHET; 70 °C, 0 h): 0 µM
- Proxy for plastic degradation (PET [8]; 30 °C, 0 h): 0 µM
- Proxy for plastic degradation (PET [8]; 30 °C, 24 h): 240 µM
- Proxy for plastic degradation (PET [8]; 50 °C, 0 h): 0 µM
- Proxy for plastic degradation (PET [8]; 70 °C, 0 h): 0 µM
- Proxy for plastic degradation (PET [8]; 70 °C, 24 h): 180 µM
- Proxy for plastic degradation (PET [9]; 30 °C, 0 h): 0 µM
- Proxy for plastic degradation (PET [9]; 30 °C, 24 h): 320 µM
- Proxy for plastic degradation (PET [9]; 30 °C, 48 h): 380 µM
- Proxy for plastic degradation (PET [9]; 30 °C, 72 h): 390 µM
- Proxy for plastic degradation (PET [9]; 30 °C, 96 h): 400 µM
- Proxy for plastic degradation (PET [9]; 50 °C, 0 h): 0 µM
- Proxy for plastic degradation (PET [9]; 50 °C, 24 h): 500 µM
- Proxy for plastic degradation (PET [9]; 50 °C, 48 h): 620 µM
- Proxy for plastic degradation (PET [9]; 50 °C, 72 h): 630 µM
- Proxy for plastic degradation (PET [9]; 50 °C, 96 h): 700 µM
- Proxy for plastic degradation (PET [9]; 70 °C, 0 h): 0 µM
- Proxy for plastic degradation (PET [9]; 70 °C, 24 h): 370 µM
- Proxy for plastic degradation (PET [9]; 70 °C, 48 h): 410 µM
- Proxy for plastic degradation (PET [9]; 70 °C, 72 h): 405 µM
- Proxy for plastic degradation (PET [9]; 70 °C, 96 h): 410 µM
- Proxy for plastic degradation (PET [1]; 30 °C): 0 µM
- Proxy for plastic degradation (PET [1]; 50 °C): 0 µM
- Proxy for plastic degradation (PET [1]; 70 °C): 0 µM

B3: unnamed (protein)
chain: MNFPRASRLMQAAVLGGLMAVSAAATAQTNPYARGPNPTAASLEASAGPFTVRSFTVSRPSGYGAGTVYYPTNAGGTVGAIAIVPGYTARQSSIKWWGPRLASHGFVVITIDTNSTLDQPSSRSSQQMAALRQVASLNGTSSSPIYGKVDTARMGVMGWSMGGGGSLISAANNPSLKAAAPQAPWDSSTNFSSVTVPTLIFACENDSIAPVNSSALPIYDSMSRNAKQFLEINGGSHSCANSGNSNQALIGKKGVAWMKRFMDNDTRYSTFACENPNSTRVSDFRTANCS
- Proxy for plastic degradation (PET [6]; [10]): 0 µM
- Proxy for plastic degradation (PET [6]; [11]): 60 µM
- Proxy for plastic degradation (PET [7]; [10]): 0 µM
- Proxy for plastic degradation (PET [7]; [12]): 26 µM
- Proxy for plastic degradation (BHET; [10]): 0 µM
- Proxy for plastic degradation (BHET; 30 °C, 20 h, part of the chain shown): 12 µM
- Proxy for plastic degradation (BHET; 30 °C, 40 h, part of the chain shown): 19 µM
- Proxy for plastic degradation (BHET; 30 °C, 60 h, part of the chain shown): 24 µM
- Proxy for plastic degradation (BHET; 50 °C, 0 h, part of the chain shown): 0 µM
- Proxy for plastic degradation (BHET; 50 °C, 40 h, part of the chain shown): 5.9 µM
- Proxy for plastic degradation (BHET; 50 °C, 60 h, part of the chain shown): 5.6 µM
- Proxy for plastic degradation (BHET; 70 °C, 0 h, part of the chain shown): 0 µM
- Proxy for plastic degradation (BHET; 70 °C, 20 h, part of the chain shown): 2.3 µM
- Proxy for plastic degradation (BHET; 70 °C, 40 h, part of the chain shown): 3 µM
- Proxy for plastic degradation (BHET; 70 °C, 60 h, part of the chain shown): 1.85 µM
- Proxy for plastic degradation (BHET; part of the chain shown): 4 µM
- Proxy for plastic degradation (PET [8]; [10]): 0 µM
- Proxy for plastic degradation (PET [8]; [11]): 505 µM
- Proxy for plastic degradation (PET [8]; [13]): 460 µM
- Proxy for plastic degradation (PET [9]; [10]): 0 µM
- Proxy for plastic degradation (PET [9]; 30 °C, 24 h, part of the chain shown): 580 µM
- Proxy for plastic degradation (PET [9]; [11]): 590 µM
- Proxy for plastic degradation (PET [9]; [12]): 600 µM
- Proxy for plastic degradation (PET [9]; [13]): 520 µM
